Experimental data: paper PMC11420332 (Biologics : Targets & Therapy, 2024)

Legend:
Assay in all cases: ELISA
[1] = target: IL-17D (Homo sapiens, UniProt Q8TAD2)
[2] = target: IL-17B (Homo sapiens, UniProt Q9UHF5)
[3] = target: IL-17C (Homo sapiens, UniProt Q9P0M4)

Measured: binding result

IL-17C, sequence (Q9P0M4 19-197): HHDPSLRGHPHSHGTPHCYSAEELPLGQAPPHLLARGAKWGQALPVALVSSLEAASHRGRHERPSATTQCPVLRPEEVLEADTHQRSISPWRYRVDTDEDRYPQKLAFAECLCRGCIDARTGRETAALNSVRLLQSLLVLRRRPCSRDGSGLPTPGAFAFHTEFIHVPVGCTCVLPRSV
IL-17B, sequence (Q9UHF5 21-180): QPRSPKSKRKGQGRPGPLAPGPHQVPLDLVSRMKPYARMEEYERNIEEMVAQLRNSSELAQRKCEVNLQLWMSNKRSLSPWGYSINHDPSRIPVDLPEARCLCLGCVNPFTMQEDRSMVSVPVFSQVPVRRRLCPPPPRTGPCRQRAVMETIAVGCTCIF
IL-17D, sequence (Q8TAD2 16-202): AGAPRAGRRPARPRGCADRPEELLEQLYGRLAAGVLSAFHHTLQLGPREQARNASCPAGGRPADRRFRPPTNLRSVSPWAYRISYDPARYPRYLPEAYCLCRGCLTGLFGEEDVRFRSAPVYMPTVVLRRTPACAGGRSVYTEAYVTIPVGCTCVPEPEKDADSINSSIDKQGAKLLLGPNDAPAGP

B1: Ixekizumab (antibody, V domains shown)
VH: QVQLVQSGAEVKKPGSSVKVSCKASGYSFTDYHIHWVRQAPGQGLEWMGVINPMYGTTDYNQRFKGRVTITADESTSTAYMELSSLRSEDTAVYYCARYDYFTGTGVYWGQGTLVTVSS
VL: DIVMTQTPLSLSVTPGQPASISCRSSRSLVHSRGNTYLHWYLQKPGQSPQLLIYKVSNRFIGVPDRFSGSGSGTDFTLKISRVEAEDVGVYYCSQSTHLPFTFGQGTKLEIK
no binding (tested: 100 ng/well): all assays above
